Data: the FLAb antibody collection
Numbering of substitutions follows the chain as printed. Several values for one entry are separate records, joined by “and”; a condition that tells them apart may be missing. Equal values may be shown once.

B1: unnamed (protein)
chain 1: QVQLVQSGVEVKKPGASVKVSCKASGYTFTNYYMYWVRQAPGQGLEWMGGINPSNGGTNFNEKFKNRVTLTTDSSTTTAYMELKSLQFDDTAVYYCARRDYRFDMGFDYWGQGTTVTVSS
chain 2: EIVLTQSPATLSLSPGERATLSCRASKGVSTSGYSYLHWYQQKPGQAPRLLIYLASYLESGVPARFSGSGSGTDFTLTISSLEPEDFAVYYCQHSRDLPLTFGGGTKVEIK
B2: unnamed (protein)
chain 1: EGQLVQSGGGLVHPGGSLRLSCAGSGFTFSSYGMHWVRQAPGKGLEWVSGIGTGGGTYSTDSVKGRFTISRDNAKNSLYLQMNSLRAEDMAVYYCARGDYYGSGSFFDCWGQGTLVTVSS
chain 2: DIQMTQSPSSLSASVGDRVTITCRASQGISSWLAWYQQKPEKAPKSLIYAASSLQSGVPSRFSGSGSGTDFTLTISSLQPEDFATYYCQQYNSYPPTFGQGTKLEIK
B3: unnamed (protein)
chain 1: EVQLVESGGGLVQPGGSLRLSCAASGYTFTSYVIHWVRQAPGKGLEWVGYNNPYNAGTNYNEKFKGRFTISSDKSKNTAYLQMNSLRAEDTAVYYCSRPTMLPWFAYWGQGTLVTVSS
chain 2: DIQMTQSPSSLSASVGDRVTITCRASQAVSSAVAWYQQKPGKAPKLLIYSASHRYTGVPSRFSGSGSGTDFTLTISSLQPEDFATYYCQESYSTPWTFGQGTKVEIK
B4: unnamed (protein)
chain 1: EVQLVESGGGLVQPGGSLRLSCAASGYTFIDYYMNWVRQAPGKGLEWVGDINLDNSGTHYNQKFKGRFTISRDKSKNTAYLQMNSLRAEDTAVYYCAREGVYHDYDDYAMDYWGQGTLVTVSS
chain 2: DIQMTQSPSSLSASVGDRVTITCRTSQSLVHINAITYLHWYQQKPGKAPKLLIYRVSNRFSGVPSRFSGSGSGTDFTLTISSLQPEDFATYYCGQSTHVPLTFGQGTKVEIK
B5: unnamed (protein)
chain 1: EVQLVESGGGLVQPGGSLRLSCAASGYTFTSYNMHWVRQAPGKGLEWVGAIYPGNGDTSYNQKFKGRFTISVDKSKNTLYLQMNSLRAEDTAVYYCARVVYYSNSYWYFDVWGQGTLVTVSS
chain 2: DIQMTQSPSSLSASVGDRVTITCRASSSVSYMHWYQQKPGKAPKPLIYAPSNLASGVPSRFSGSGSGTDFTLTISSLQPEDFATYYCQQWSFNPPTFGQGTKVEIK
B6: unnamed (protein)
chain 1: EVQLVESGGGLVQPGGSLRLSCAASGFNFNDYFMNWVRQAPGKGLEWVAQMRNKNYQYGTYYAESLEGRFTISRDDSKNSLYLQMNSLKTEDTAVYYCARESYYGFTSYWGQGTLVTVSS
chain 2: DIQMTQSPSSLSASVGDRVTITCQASQDIGISLSWYQQKPGKAPKLLIYNANNLADGVPSRFSGSGSGTDFTLTISSLQPEDFATYYCLQHNSAPYTFGQGTKLEIK
B7: unnamed (protein)
chain 1: EVQLVESGGGLVQPGRSLRLSCAASGFTFNDYAMHWVRQAPGKGLEWVSTISWNSGSIGYADSVKGRFTISRDNAKKSLYLQMNSLRAEDTALYYCAKDIQYGNYYYGMDVWGQGTTVTVSS
chain 2: EIVLTQSPATLSLSPGERATLSCRASQSVSSYLAWYQQKPGQAPRLLIYDASNRATGIPARFSGSGSGTDFTLTISSLEPEDFAVYYCQQRSNWPITFGQGTRLEIK
B8: unnamed (protein)
chain 1: QLQLQESGPGLVKPSETLSLTCTVSGGSINSSSYYWGWLRQSPGKGLEWIGSFFYTGSTYYNPSLRSRLTISVDTSKNQFSLMLSSVTAADTAVYYCARQSTYYYGSGNYYGWFDRWDQGTLVTVSS
chain 2: B7 chain 2 with I96P, T97A, R103K, L104V
B9: unnamed (protein)
chain 1: EVQLVQSGPGLVQPGGSVRISCAASGYTFTNYGMNWVKQAPGKGLEWMGWINTYTGESTYADSFKGRFTFSLDTSASAAYLQINSLRAEDTAVYYCARFAIKGDYWGQGTLLTVSS
chain 2: DIQMTQSPSSLSASVGDRVTITCRSTKSLLHSNGITYLYWYQQKPGKAPKLLIYQMSNLASGVPSRFSSSGSGTDFTLTISSLQPEDFATYYCAQNLEIPRTFGQGTKVELK
B10: unnamed (protein)
chain 1: EVQLVESGGGLVQPGGSLRLSCAASGYTFTSYWLHWVRQAPGKGLEWVGMIDPSNSDTRFNPNFKDRFTISADTSKNTAYLQMNSLRAEDTAVYYCATYRSYVTPLDYWGQGTLVTVSS
chain 2: DIQMTQSPSSLSASVGDRVTITCKSSQSLLYTSSQKNYLAWYQQKPGKAPKLLIYWASTRESGVPSRFSGSGSGTDFTLTISSLQPEDFATYYCQQYYAYPWTFGQGTKVEIK
B11: unnamed (protein)
chain 1: EVKLVESGGGLVQPGGSLRLSCATSGFTFTDYYMNWVRQPPGKALEWLGFIGNKANGYTTEYSASVKGRFTISRDKSQSILYLQMNTLRAEDSATYYCTRDRGLRFYFDYWGQGTTLTVSS
chain 2: QTVLSQSPAILSASPGEKVTMTCRASSSVTYIHWYQQKPGSSPKSWIYATSNLASGVPARFSGSGSGTSYSLTISRVEAEDAATYYCQHWSSKPPTFGGGTKLEIK
B12: unnamed (protein)
chain 1: QVTLRESGPALVKPTQTLTLTCTFSGFSLSTSGMSVGWIRQPPGKALEWLADIWWDDKKDYNPSLKSRLTISKDTSKNQVVLKVTNMDPADTATYYCARSMITNWYFDVWGAGTTVTVSS
chain 2: DIQMTQSPSTLSASVGDRVTITCKCQLSVGYMHWYQQKPGKAPKLLIYDTSKLASGVPSRFSGSGSGTEFTLTISSLQPDDFATYYCFQGSGYPFTFGGGTKLEIK
B13: unnamed (protein)
chain 1: QVQLQESGPGLVKPSETLSLTCTVSGGSVSSGDYYWTWIRQSPGKGLEWIGHIYYSGNTNYNPSLKSRLTISIDTSKTQFSLKLSSVTAADTAIYYCVRDRVTGAFDIWGQGTMVTVSS
chain 2: DIQMTQSPSSLSASVGDRVTITCQASQDISNYLNWYQQKPGKAPKLLIYDASNLETGVPSRFSGSGSGTDFTFTISSLQPEDIATYFCQHFDHLPLAFGGGTKVEIK
B14: unnamed (protein)
chain 1: EVQLVQSGAEVKKPGESLKISCKGSGRTFTSYNMHWVRQMPGKGLEWMGAIYPLTGDTSYNQKSKLQVTISADKSISTAYLQWSSLKASDTAMYYCARSTYVGGDWQFDVWGKGTTVTVSS
chain 2: EIVLTQSPGTLSLSPGERATLSCRASSSVPYIHWYQQKPGQAPRLLIYATSALASGIPDRFSGSGSGTDFTLTISRLEPEDFAVYYCQQWLSNPPTFGQGTKLEIK
B15: unnamed (protein)
chain 1: QVQLVQSGAEVKKPGSSVKVSCKASGYAFSYSWINWVRQAPGQGLEWMGRIFPGDGDTDYNGKFKGRVTITADKSTSTAYMELSSLRSEDTAVYYCARNVFDGYWLVYWGQGTLVTVSS
chain 2: DIVMTQTPLSLPVTPGEPASISCRSSKSLLHSNGITYLYWYLQKPGQSPQLLIYQMSNLVSGVPDRFSGSGSGTDFTLKISRVEAEDVGVYYCAQNLELPYTFGGGTKVEIK
B16: unnamed (protein)
chain 1: EVQLVESGGGLVQPGGSMRLSCVASGFPFSNYWMNWVRQAPGKGLEWVGEIRLKSNNYTTHYAESVKGRFTISRDDSKNSLYLQMNSLKTEDTAVYYCTRHYYFDYWGQGTLVTVSS
chain 2: B15 chain 2 with T7S, L11N, L38F, Y39F, V60A, K79R, Y101P, G105Q
B17: unnamed (protein)
chain 1: QVQLQESGPGLVRPSQTLSLTCTASGYTFTDYVIHWVKQPPGRGLEWIGYINPYDDDTTYNQKFKGRVTMLVDTSSNTAYLRLSSVTAEDTAVYYCARRGNSYDGYFDYSMDYWGSGTPVTVSS
chain 2: DIQMTQSPSSLSASVGDRVTITCRASQNVGTAVAWLQQTPGKAPKLLIYSASNRYTGVPSRFSGSGSGTDYTFTISSLQPEDIATYYCQQYTNYPMYTFGQGTKVQIK
B18: unnamed (protein)
chain 1: QVQLVQSGAEVKKPGASVKVSCKASGYTFTSYWMHWVRQAPGQGLEWIGNINPSNGGTNYNEKFKSKATMTRDTSTSTAYMELSSLRSEDTAVYYCELMQGYWGQGTLVTVSS
chain 2: DIVMTQSPLSNPVTLGQPVSISCRSSKSLLYKDGKTYLNWFLQRPGQSPQLLIYLMSTRASGVPDRFSGGGSGTDFTLKISRVEAEDVGVYYCQQLVEYPLTFGQGTKLEIK
B19: unnamed (protein)
chain 1: EVQLVQSGAEVKKPGESLKISCKGSGYSFTGYNMNWVRQMPGKGLEWMGNIDPYYGGTTYNRKFKGQVTISADKSISTAYLQWSSLKASDTAMYYCARSVGPFDSWGQGTLVTVSS
chain 2: EIVLTQSPATLSLSPGERATLSCRASENVYSYLAWYQQKPGQAPRLLIYFAKTLAEGIPARFSGSGSGTDFTLTISSLEPEDFAVYYCQHHSDNPWTFGQGTKVEIK

Assay: patients with anti-drug antibodies; higher = more immunogenic

Row | Protein | patients with anti-drug antibodies
1 | B1 | 1.7%
2 | B2 | 0%
3 | B3 | 4.7%
4 | B4 | 4.7%
5 | B5 | 1%
6 | B6 | 9.8%
7 | B7 | 0%
8 | B8 | 3.5%
9 | B9 | 40%
10 | B10 | 11.9%
11 | B11 | 0.5%
12 | B12 | 1.1%
13 | B13 | 2.8%
14 | B14 | 1%
15 | B15 | 6% and 6.6%
16 | B16 | 25% and 9.5%
17 | B17 | 4.5%
18 | B18 | 2.5%
19 | B19 | 5%
